The target of this experiment is LH2-G1 (wild-type LH2 with the N-terminal fragment of Gaussia luciferase fused to its C-terminus) (UniProt O00469). Put plainly: split reporter (BiFC, NanoBiT); Gaussia luciferase protein-fragment complementation; LH2-G1 and FKBP65-G2 plasmids co-transfected 1:1 into 293F cells, 48 h, passive lysis buffer, luciferase activity of total cell lysates with 20 μM native coelenterazine.

We go through one substance from publication PMC5380960.

Chain of UniProt O00469 (O00469 26-737): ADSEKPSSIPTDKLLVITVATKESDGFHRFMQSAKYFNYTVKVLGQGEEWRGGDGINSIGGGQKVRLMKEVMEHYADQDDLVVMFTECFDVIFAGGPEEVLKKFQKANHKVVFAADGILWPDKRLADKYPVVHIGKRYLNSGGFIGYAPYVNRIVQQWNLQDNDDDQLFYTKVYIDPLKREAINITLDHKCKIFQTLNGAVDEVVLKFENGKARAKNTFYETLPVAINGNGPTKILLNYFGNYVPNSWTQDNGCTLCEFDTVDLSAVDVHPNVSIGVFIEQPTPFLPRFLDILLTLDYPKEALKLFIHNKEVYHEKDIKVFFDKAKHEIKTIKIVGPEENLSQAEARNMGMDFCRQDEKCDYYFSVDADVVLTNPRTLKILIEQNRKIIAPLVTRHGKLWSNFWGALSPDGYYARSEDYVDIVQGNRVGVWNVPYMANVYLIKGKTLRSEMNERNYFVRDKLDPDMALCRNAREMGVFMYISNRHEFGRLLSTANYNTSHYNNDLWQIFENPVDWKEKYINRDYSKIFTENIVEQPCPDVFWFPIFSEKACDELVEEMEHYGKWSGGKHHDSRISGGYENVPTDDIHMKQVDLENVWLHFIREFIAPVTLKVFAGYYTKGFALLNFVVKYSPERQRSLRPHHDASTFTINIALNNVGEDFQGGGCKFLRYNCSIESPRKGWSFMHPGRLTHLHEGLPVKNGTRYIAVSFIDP

As for “FKBP65-G2 (FKBP65 with the C-terminal fragment of Gaussia luciferase fused to its C-terminus) (from UniProt Q96AY3 27-582) (enzyme)”, the fold luciferase activity of co-transfected cells over either vector alone worked out at 800 fold.
